The target of assay [1] is IFNγ receptor (Homo sapiens) (UniProt P15260). The settings on record: cited from earlier work.
Assay [2] addresses T1, IFNγR1 extracellular domain (amino acids 26–254), recombinant (mouse, UniProt P15261 26-254).
T1 construct: mouse interferon-gamma receptor 1, extracellular domain, amino acids 26-254, cloned from mouse cDNA into pET26b-N-His6-SUMO; Immobilised on the chip through anti-His5; source: E. coli (T7 express, with pRARE plasmid), periplasmic expression, purified (osmotic shock, HisTrap, gel filtration); not shown: His6-SUMO, N-terminal, cleaved; His6, C-terminal, kept
T1 sequence (looked up): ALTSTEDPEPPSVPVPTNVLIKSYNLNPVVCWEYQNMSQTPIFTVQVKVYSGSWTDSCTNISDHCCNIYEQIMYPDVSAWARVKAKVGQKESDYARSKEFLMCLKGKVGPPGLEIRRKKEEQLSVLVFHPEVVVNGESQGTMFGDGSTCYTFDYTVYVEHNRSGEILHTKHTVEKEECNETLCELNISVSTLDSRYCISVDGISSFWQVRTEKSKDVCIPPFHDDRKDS
The experiment in a line: SPR; Biacore T200, CM4 chip coated with anti-His5 onto which recombinant IFNγR1 was immobilised; IFNγ variants injected over 180 s at 0, 1, 2.5, 5, 10, 25 and 50 nM. As to conditions: both partners purified. A general note: Surface plasmon resonance follows binding to a sensor surface in real time, without labels.

Chain of IFNγ receptor (Homo sapiens) (P15260 18-245): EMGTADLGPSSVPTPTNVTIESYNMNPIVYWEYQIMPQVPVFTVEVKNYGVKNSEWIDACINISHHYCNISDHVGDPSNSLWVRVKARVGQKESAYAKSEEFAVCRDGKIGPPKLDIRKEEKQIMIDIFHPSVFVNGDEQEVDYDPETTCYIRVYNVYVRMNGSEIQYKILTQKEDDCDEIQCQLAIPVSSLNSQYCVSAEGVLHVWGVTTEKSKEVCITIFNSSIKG

As for IFNγ (from UniProt P01579), the dissociation constant (Kd) in assay [1] is 0.5 nM.

B1: Interferon-γ (IFNγ), recombinant (ligand, mouse, UniProt P01580 23-155, looked up)
chain: HGTVIESLESLNNYFNSSGIDVEEKSLFLDIWRNWQKDGDMKILQSQIISFYLRLFEVLKDNQAISNNISVIESHLITTFFSNSKAKKDAFMSIAKFEVNNPQVQRQAFNELIRVVHQLLPESSLRKRKRSRC
notes: mouse interferon-gamma, cDNA without the leader peptide, codon optimized, in pET28-N-His6-SUMO; also called IFNγ^wt; source: E. coli (T7 express, with pRARE plasmid), purified (HisTrap, size-exclusion chromatography); not shown: His6-SUMO, N-terminal, cleaved
Consider B1, for which the binding result in assay [2] is “binds”.

B2: IFNγ–green fluorescent protein fusion protein (IFNγ–GFP), recombinant (ligand, mouse, UniProt P01580 23-155, looked up)
chain: HGTVIESLESLNNYFNSSGIDVEEKSLFLDIWRNWQKDGDMKILQSQIISFYLRLFEVLKDNQAISNNISVIESHLITTFFSNSKAKKDAFMSIAKFEVNNPQVQRQAFNELIRVVHQLLPESSLRKRKRSRC
notes: mouse interferon-gamma, cDNA without the leader peptide, with GFP fused to the C-terminus; source: E. coli (T7 express, with pRARE plasmid), purified (HisTrap, Superdex 200); not shown: His6-SUMO, N-terminal, cleaved; GFP, C-terminal, kept
B2: the binding result in assay [2] was “binds”.

Broadly, the Kd is the equilibrium constant for the complex coming apart.

Values taken from publication PMC9977683, “IFNγ binding to extracellular matrix prevents fatal systemic toxicity” (Nature Immunology, 2023).
